In paper PMC4926470:

Legend:
[1] = secreted protein in media at 37 °C, Western; conditions: glycan lost; control: wild type
[2] = Western densitometry, % in media, 48 h; conditions: control: wild type
[3] = AHA pulse-chase, intracellular protein; conditions: glycan lost; control: wild type
[4] = Western blot of conditioned media; conditions: control: untreated
[5] = Western densitometry, % in media; conditions: glycan gained; control: wild type

Protein | degradation_or_half_life, half_life [1] | expression_or_secretion, other: percent of total protein in media ([2]; glycan lost) | other results
human Rspo2: N160Q (protein) parent chain: MQFRLFSFALIILNCMDYSHCQGNRWRRSKRASYVSNPICKGCLSCSKDNGCSRCQQKLFFFLRREGMRQYGECLHSCPSGYYGHRAPDMNRCARCRIENCDSCFSKDFCTKCKVGFYLHRGRCFDECPDGFAPLEETMECVEGCEVGHWSEWGTCSRNNRTCGFKWGLETRTRQIVKKPVKDTILCPTIAESRRCKMTMRHCPGGKRTPKAKEKRNKKKKRKLIERAQEQHSVFLATDRANQ | decreases, 12 vs 36 | decreases, 18% vs 34% | –
human Rspo2: E136N (protein) parent chain: MQFRLFSFALIILNCMDYSHCQGNRWRRSKRASYVSNPICKGCLSCSKDNGCSRCQQKLFFFLRREGMRQYGECLHSCPSGYYGHRAPDMNRCARCRIENCDSCFSKDFCTKCKVGFYLHRGRCFDECPDGFAPLEETMECVEGCEVGHWSEWGTCSRNNRTCGFKWGLETRTRQIVKKPVKDTILCPTIAESRRCKMTMRHCPGGKRTPKAKEKRNKKKKRKLIERAQEQHSVFLATDRANQ | – | – | expression_or_secretion, other: percent of total protein in media ([2]; glycan gained): increases, two-fold vs 34%
human Rspo1 (R-spondin 1): N137Q (protein) parent chain: MRLGLCVVALVLSWTHLTISSRGIKGKRQRRISAEGSQACAKGCELCSEVNGCLKCSPKLFILLERNDIRQVGVCLPSCPPGYFDARNPDMNKCIKCKIEHCEACFSHNFCTKCKEGLYLHKGRCYPACPEGSSAANGTMECSSPAQCEMSEWSPWGPCSKKQQLCGFRRGSEERTRRVLHAPVGDHAACSDTKETRRCTVRRVPCPEGQKRRKGGQGRRENANRNLARKESKEAGAGSRRRKGQQQQQQQGTVGPLTSAGPA | no change, ~48 vs >48 | decreases, 32% vs 56% | degradation_or_half_life, half_life [3]: decreases, 0.6 vs 0.9
human Rspo1 (R-spondin 1): tunicamycin (protein) parent chain: MRLGLCVVALVLSWTHLTISSRGIKGKRQRRISAEGSQACAKGCELCSEVNGCLKCSPKLFILLERNDIRQVGVCLPSCPPGYFDARNPDMNKCIKCKIEHCEACFSHNFCTKCKEGLYLHKGRCYPACPEGSSAANGTMECSSPAQCEMSEWSPWGPCSKKQQLCGFRRGSEERTRRVLHAPVGDHAACSDTKETRRCTVRRVPCPEGQKRRKGGQGRRENANRNLARKESKEAGAGSRRRKGQQQQQQQGTVGPLTSAGPA | – | – | expression_or_secretion ([4]; glycan lost): decreases
human Rspo1 (R-spondin 1): castanospermine (protein) parent chain: MRLGLCVVALVLSWTHLTISSRGIKGKRQRRISAEGSQACAKGCELCSEVNGCLKCSPKLFILLERNDIRQVGVCLPSCPPGYFDARNPDMNKCIKCKIEHCEACFSHNFCTKCKEGLYLHKGRCYPACPEGSSAANGTMECSSPAQCEMSEWSPWGPCSKKQQLCGFRRGSEERTRRVLHAPVGDHAACSDTKETRRCTVRRVPCPEGQKRRKGGQGRRENANRNLARKESKEAGAGSRRRKGQQQQQQQGTVGPLTSAGPA | – | – | expression_or_secretion ([4]; glycan changed form): decreases
human Rspo1 (R-spondin 1): Q163N/L165T (protein) parent chain: MRLGLCVVALVLSWTHLTISSRGIKGKRQRRISAEGSQACAKGCELCSEVNGCLKCSPKLFILLERNDIRQVGVCLPSCPPGYFDARNPDMNKCIKCKIEHCEACFSHNFCTKCKEGLYLHKGRCYPACPEGSSAANGTMECSSPAQCEMSEWSPWGPCSKKQQLCGFRRGSEERTRRVLHAPVGDHAACSDTKETRRCTVRRVPCPEGQKRRKGGQGRRENANRNLARKESKEAGAGSRRRKGQQQQQQQGTVGPLTSAGPA | – | – | expression_or_secretion, fold_change [5]: increases
human Rspo3: N137Q (protein) parent chain: MHLRLISWLFIILNFMEYIGSQNASRGRRQRRMHPNVSQGCQGGCATCSDYNGCLSCKPRLFFALERIGMKQIGVCLSSCPSGYYGTRYPDINKCTKCKADCDTCFNKNFCTKCKSGFYLHLGKCLDNCPEGLEANNHTMECVSIVHCEVSEWNPWSPCTKKGKTCGFKRGTETRVREIIQHPSAKGNLCPPTNETRKCTVQRKKCQKGERGKKGRERKRKKPNKGESKEAIPDSKSLESSKEIPEQRENKQQQKKRKVQDKQKSVSVSTVH | no change, >48 vs >48 | decreases, 44% vs 67% | –
human Rspo3: tunicamycin (protein) parent chain: MHLRLISWLFIILNFMEYIGSQNASRGRRQRRMHPNVSQGCQGGCATCSDYNGCLSCKPRLFFALERIGMKQIGVCLSSCPSGYYGTRYPDINKCTKCKADCDTCFNKNFCTKCKSGFYLHLGKCLDNCPEGLEANNHTMECVSIVHCEVSEWNPWSPCTKKGKTCGFKRGTETRVREIIQHPSAKGNLCPPTNETRKCTVQRKKCQKGERGKKGRERKRKKPNKGESKEAIPDSKSLESSKEIPEQRENKQQQKKRKVQDKQKSVSVSTVH | – | – | expression_or_secretion ([4]; glycan lost): decreases
